Results: patent publication US20220064327A1 (KYMAB, published 2022)
Read-outs that look alike come from different tables or passages of the source.

What was measured:
human factor IX [1] = target: T1, human factor IX (human, UniProt P00740 47-461, 12 glutamic acid residues of the GLA domain are post-translationally γ-carboxylated); experiment: SPR, IgG captured on anti-human IgG Fc, human FIX as analyte
T1 construct: Zymogen used as analyte in SPR, reconstituted at 1 mg/ml; also called FIX; Human FIX (MW ~55 KDa)
Method: (§1) SPR was used to determine the binding affinity (KD) to FIX or FX respectively, the kinetic constants on-rate (kₒₙ) and off-rate (koff). Analyses was performed using a Biacore 8K (GE Healthcare) system.
(§2) Monospecific antibodies (referred as ligand) which had been purified on Protein A were captured onto the anti-human IgG Fc CM4 surface at approximately 2 μg/ml. The ligands were injected for 60 seconds at 10 μl/min in all the active channels of all 8 flow channels. The run was performed at 25° C. using neutral pH HBS-P 1X+CaCl₂ 2.5 mM as running buffer.
(§3) Human FIX (MW ˜55 KDa) or human FX (MW ˜58 KDa) was reconstituted at 1 mg/ml in the running buffer and used as analyte. The analyte was injected in multiple cycle kinetics (MCK) mode at 3 concentrations (1.5 μM, 500 nM and 166.7 nM) with 120 seconds association phase and 200 seconds (for FIX) or 300 seconds (for FX) dissociation phase, at flow rate […] in both active and reference channels. Three injections of 10 mM Glycine pH 1.5 for 60 sec. at 10 μl/min were used for the regeneration phase.

human factor IX [2] = target: T1, human factor IX; experiment: as above; remark: listed apart in the source
human factor X [3] = target: T2, human factor X (human, UniProt P00742 41-179; P00742 183-488); experiment: SPR, IgG captured on anti-human IgG Fc, human FX as analyte
T2 construct: Zymogen used as analyte in SPR; also called FX; Human FX (MW ~58 KDa)
Method: as §1, §2, §3

human factor X [4] = target: T2, human factor X; experiment: as above; remark: listed apart in the source
human factor IX [5] = target: T1, human factor IX; experiment: SPR (Biacore 8K), antibody captured on anti-human IgG Fc CM4 chip, human FIX injected alone as analyte (10 µM, 180 s per Example 11) [i), B(i]
Method: (§4) The binding kinetics of the purified bispecific antibody was compared to an isotype control (ISTC). […] FIG. 21A.
(§5) Bispecific antibody (ligand), which had been purified by Protein A capture followed by ion exchange chromatography, was captured on to the anti-human IgG Fc CM4 surface at approximately 2 μg/ml. The ligand was injected at 10 μg/ml for 60 seconds at 10 μl/min in one active channel. The run was performed at 25° C. using neutral pH HBS-P 1×+CaCl₂ 2.5 mM as running buffer.

[6] = target: human FIX and human FX mixed 1:1 (10 µM 10 µM); experiment: SPR, bispecific captured on anti-human IgG Fc, second injection of a 1:1 mixture of FIX and FX
human factor X [7] = target: T2, human factor X; experiment: SPR, bispecific captured on anti-human IgG Fc, FIX then FX injected
Method: as §4, §5

human factor X [8] = target: T2, human factor X; experiment: cell-based or functional assay

T2 sequence (P00742 41-179, chain 1 of 2): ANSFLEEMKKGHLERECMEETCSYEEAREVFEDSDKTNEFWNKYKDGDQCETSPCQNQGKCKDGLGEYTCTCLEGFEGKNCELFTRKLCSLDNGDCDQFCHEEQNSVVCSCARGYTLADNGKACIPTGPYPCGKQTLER
T2 sequence (P00742 183-488, chain 2 of 2): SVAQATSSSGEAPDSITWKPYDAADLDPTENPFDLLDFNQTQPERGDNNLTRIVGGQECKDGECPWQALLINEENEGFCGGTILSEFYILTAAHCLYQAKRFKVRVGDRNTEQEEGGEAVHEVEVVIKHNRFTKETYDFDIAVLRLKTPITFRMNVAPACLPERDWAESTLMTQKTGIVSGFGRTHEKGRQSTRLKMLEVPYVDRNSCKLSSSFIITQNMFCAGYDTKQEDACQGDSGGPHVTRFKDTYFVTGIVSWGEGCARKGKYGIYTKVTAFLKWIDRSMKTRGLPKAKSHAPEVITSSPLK
T1 sequence (P00740 47-461 limits assumed): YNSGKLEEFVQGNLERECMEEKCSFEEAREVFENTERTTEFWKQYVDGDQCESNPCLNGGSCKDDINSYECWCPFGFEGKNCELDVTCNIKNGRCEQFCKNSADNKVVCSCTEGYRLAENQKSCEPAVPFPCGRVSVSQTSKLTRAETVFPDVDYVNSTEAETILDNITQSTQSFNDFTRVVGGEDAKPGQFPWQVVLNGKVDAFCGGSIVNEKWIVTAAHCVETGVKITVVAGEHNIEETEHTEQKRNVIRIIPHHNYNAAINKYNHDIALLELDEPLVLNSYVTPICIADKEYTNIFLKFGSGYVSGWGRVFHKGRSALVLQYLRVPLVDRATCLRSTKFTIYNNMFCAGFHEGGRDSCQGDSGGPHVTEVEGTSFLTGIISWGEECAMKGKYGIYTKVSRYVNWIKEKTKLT

Binder | Kd (human factor X [3]) [nM] | koff (human factor X [3]) [s⁻¹] | kon (human factor X [3]) [M⁻¹ s⁻¹] | Kd (human factor X [4]) [nM] | further results
NINA-0460.0128 (antibody, V domains shown) VH: EVQLVESGGGFVQPGGSLRLSCAVSGFTFNSYWMSWVRQAPGKGLEWVANINQDGSEKFYVASVKGRFTMSRDNAKKSVYVQMNSLRAEDTAVYYCAREGYSSSQYYGMDVWGQGTTVTVSS VL: SYVLTQPPSVSVAPGETARITCGGDNIGRKSVYWYQQKSGQAPVLVIYYDSDRPSGIPERFSGSNSGNTATLTISRVEAGDEADYYCQVWDGSSDHWVFGGGTKLTVL |  |  |  |  | Kd (human factor IX [1]): 181 nM; koff (human factor IX [1]): 0.0318 s⁻¹; kon (human factor IX [1]): 175000 M⁻¹ s⁻¹; Kd (human factor IX [2]): 180 nM
TINA-0205.0128 (antibody, V domains shown, Monospecific IgG4PE) VH: QVQLVQSGAEVKKPGASVKVSCKASRYSFTSYYMHWVRQAPGQGLEWMGIINPKSGDTSYAQKFQGRVTMTRDTSTSTVYMELNSLRSEDTAVYYCARDGYGSSARCLQLWGQGTLVTVSS VL: SYVLTQPPSVSVAPGETARITCGGDNIGRKSVYWYQQKSGQAPVLVIYYDSDRPSGIPERFSGSNSGNTATLTISRVEAGDEADYYCQVWDGSSDHWVFGGGTKLTVL | 1360 | 0.0853 | 62600 | 100 | 
TINA-0213.0128 (antibody, V domains shown, Monospecific IgG4PE) VH: QVQLVQSGAEVKKTGASVKVSCKASRYSFTSYYMHWVRQAPGQGLEWMGIINPKSGTTSYAQKFQGRVTMTRDTSTSTVYMELSSLRSEDTAVYYCARDGYGSSSRCLQLWGQGTLVTVSS VL: SYVLTQPPSVSVAPGETARITCGGDNIGRKSVYWYQQKSGQAPVLVIYYDSDRPSGIPERFSGSNSGNTATLTISRVEAGDEADYYCQVWDGSSDHWVFGGGTKLTVL | 1370 | 0.133 | 96900 | 1400 | 
FIXxFX bispecific antibody IXAX-0436.0202.0128 (bispecific antibody, human IgG4 S228P, lambda, also called N436 bispecific antibody) heavy 1: EVQLVESGGGFVQPGGSLRLSCAVSGFTFNSYWMSWVRQAPGKGLEWVANINQDGSEKFYVASVKGRFTMSRDNAKKSVYVQMNSLRAEDTAVYYCAREGYSSISYYGMDVWGQGTTVTVSSASTKGPSVFPLAPCSRSTSESTAALGCLVKDYFPEPVTVSWNSGALTSGVHTFPAVLQSSGLYSLSSVVTVPSSSLGTQTYTCNVDHKPSNTKVDKRVESKYGPPCPPCPAPEFLGGPSVFLFPPKPKDTLMISRTPEVTCVVVDVSQEDPEVQFNWYVDGVEVHNAKTKPREEQYNSTYRVVSVLTVLHQDWLNGKEYKCKVSNKGLPSSIEKTISKAKGQPREPQVYTLPPSQEEMTKNQVSLTCLVKGFYPSDIAVEWESNGQPENNYKTTPPVLDSDGSFFLYSKLTVDKSRWQEGNVFSCSVMHEALHNHYTQESLSLSP heavy 2: QVQLIQSGAEVQKPGASVKVSCKASRYSFTSYYMHWVRQAPGQGLEWMGIINPKSGSTSYAQKFQGRVTMTRDTSTSTVYMELSSLRSEDTAVYYCARDGYGSSSRCLQLWGQGTLVTVSSASTKGPSVFPLAPCSRSTSESTAALGCLVKDYFPEPVTVSWNSGALTSGVHTFPAVLQSSGLYSLSSVVTVPSSSLGTQTYTCNVDHKPSNTKVDKRVESKYGPPCPPCPAPEFLGGPSVFLFPPKPKDTLMISRTPEVTCVVVDVSQEDPEVQFNWYVDGVEVHNAKTKPREEQYNSTYRVVSVLTVLHQDWLNGKEYKCKVSNKGLPSSIEKTISKAKGQPREPQVYTLPPSQKEMTKNQVSLTCLVKGFYPSDIAVEWESNGQPENNYKTTPPVLDSDGSFFLYSKLTVDKSRWQEGNVFSCSVMHEALHNHYTQKSLSLSP light: SYVLTQPPSVSVAPGETARITCGGDNIGRKSVYWYQQKSGQAPVLVIYYDSDRPSGIPERFSGSNSGNTATLTISRVEAGDEADYYCQVWDGSSDHWVFGGGTKLTVLGQPKAAPSVTLFPPSSEELQANKATLVCLISDFYPGAVTVAWKADSSPVKAGVETTTPSKQSNNKYAASSYLSLTPEQWKSHKSYSCQVTHEGSTVEKTVAPTECS |  |  |  |  | binding result (human factor IX [5]): binds; response above that of the anti-FX monospecific antibody (RU) [6]: 25 RU; binding result (human factor X [7]): binds
IXAX-1280.0999.0325 (bispecific antibody, human IgG4 S228P, lambda) heavy 1: EVQLVESGGGFVQPGGSLRLSCAVSGFRFNSYWMSWVRQAPGKGLEWVANINQDGSRKFYVASVKGRFTMSRDNAKKSVYVQMNSLRAEDTAVYYCAREGYSSIKYYGMDVWGQGTTVTVSSASTKGPSVFPLAPCSRSTSESTAALGCLVKDYFPEPVTVSWNSGALTSGVHTFPAVLQSSGLYSLSSVVTVPSSSLGTQTYTCNVDHKPSNTKVDKRVESKYGPPCPPCPAPEFLGGPSVFLFPPKPKDTLMISRTPEVTCVVVDVSQEDPEVQFNWYVDGVEVHNAKTKPREEQYNSTYRVVSVLTVLHQDWLNGKEYKCKVSNKGLPSSIEKTISKAKGQPREPQVYTLPPSQEEMTKNQVSLTCLVKGFYPSDIAVEWESNGQPENNYKTTPPVLDSDGSFFLYSKLTVDKSRWQEGNVFSCSVMHEALHNHYTQESLSLSP heavy 2: QVQLIQSGAKVKKPGASVKVSCKASRYKFTSYYMHWVRQAPGQGLEWMGIINPKSGSTSYAQKFQGRVTMTRDTSTSTVYMELSSLRSEDTAVYYCARDGYGSFSRLIQLWGQGTLVTVSSASTKGPSVFPLAPCSRSTSESTAALGCLVKDYFPEPVTVSWNSGALTSGVHTFPAVLQSSGLYSLSSVVTVPSSSLGTQTYTCNVDHKPSNTKVDKRVESKYGPPCPPCPAPEFLGGPSVFLFPPKPKDTLMISRTPEVTCVVVDVSQEDPEVQFNWYVDGVEVHNAKTKPREEQYNSTYRVVSVLTVLHQDWLNGKEYKCKVSNKGLPSSIEKTISKAKGQPREPQVYTLPPSQKEMTKNQVSLTCLVKGFYPSDIAVEWESNGQPENNYKTTPPVLDSDGSFFLYSKLTVDKSRWQEGNVFSCSVMHEALHNHYTQKSLSLSP light: YVLTQPPSVSVAPGETARITCGGDNIGRKSVYWYQQKSGQAPVLVIYYDSDRPSGIPERFSGSNSGNTATLTISRVEAGDEADYYCQVWDGSSDHWVFGGGTKLTVLGQPKAAPSVTLFPPSSEELQANKATLVCLISDFYPGAVTVAWKADSSPVKAGVETTTPSKQSNNKYAASSYLSLTPEQWKSHKSYSCQVTHEGSTVEKTVAPTECS |  |  |  |  | EC50, kinetic FXase assay (FIXa-catalysed activation of FX to FXa, OD405 nm at 600 s) (human factor X [8]): 3.99 nM
